Reference: US20260193293A1, “PEPTIDES CAPABLE OF INHIBITING PROTEIN-PROTEIN INTERACTIONS AT GABAB1A SUBUNIT AND USES THEREOF” (UNIVERSITY OF COPENHAGEN, priority 2022, published 2026)
Non-standard residues stand in square brackets, D forms with d. NMeR = CN[C@@H](CCCNC(=N)N)C(=O)O; NMeE = CN[C@@H](CCC(=O)O)C(=O)O; NMeD = CN[C@@H](CC(=O)O)C(=O)O; NMeS = CN[C@@H](CO)C(=O)O

B1: …(N-Me-R)ED (peptide)
peptide: Ac-PWAIVWGPTVS[NMeR]ED-NH2
SMILES: CC[C@H](C)[C@H](NC(=O)[C@H](C)NC(=O)[C@H](Cc1c[nH]c2ccccc12)NC(=O)[C@@H]1CCCN1C(C)=O)C(=O)N[C@H](C(=O)N[C@@H](Cc1c[nH]c2ccccc12)C(=O)NCC(=O)N1CCC[C@H]1C(=O)N[C@H](C(=O)N[C@H](C(=O)N[C@@H](CO)C(=O)N(C)[C@@H](CCCNC(=N)N)C(=O)N[C@@H](CCC(=O)O)C(=O)N[C@@H](CC(=O)O)C(N)=O)C(C)C)[C@@H](C)O)C(C)C
B2: …(N-Me-D) (peptide)
peptide: Ac-PWAIVWGPTVSRE[NMeD]-NH2
SMILES: CC[C@H](C)[C@H](NC(=O)[C@H](C)NC(=O)[C@H](Cc1c[nH]c2ccccc12)NC(=O)[C@@H]1CCCN1C(C)=O)C(=O)N[C@H](C(=O)N[C@@H](Cc1c[nH]c2ccccc12)C(=O)NCC(=O)N1CCC[C@H]1C(=O)N[C@H](C(=O)N[C@H](C(=O)N[C@@H](CO)C(=O)N[C@@H](CCCNC(=N)N)C(=O)N[C@@H](CCC(=O)O)C(=O)N(C)[C@@H](CC(=O)O)C(N)=O)C(C)C)[C@@H](C)O)C(C)C
B3: …(N-Me-E)D (peptide)
peptide: Ac-PWAIVWGPTVSR[NMeE]D-NH2
SMILES: CC[C@H](C)[C@H](NC(=O)[C@H](C)NC(=O)[C@H](Cc1c[nH]c2ccccc12)NC(=O)[C@@H]1CCCN1C(C)=O)C(=O)N[C@H](C(=O)N[C@@H](Cc1c[nH]c2ccccc12)C(=O)NCC(=O)N1CCC[C@H]1C(=O)N[C@H](C(=O)N[C@H](C(=O)N[C@@H](CO)C(=O)N[C@@H](CCCNC(=N)N)C(=O)N(C)[C@@H](CCC(=O)O)C(=O)N[C@@H](CC(=O)O)C(N)=O)C(C)C)[C@@H](C)O)C(C)C
B4: …(N-Me-S)RED (peptide)
peptide: Ac-PWAIVWGPTV[NMeS]RED-NH2
SMILES: CC[C@H](C)[C@H](NC(=O)[C@H](C)NC(=O)[C@H](Cc1c[nH]c2ccccc12)NC(=O)[C@@H]1CCCN1C(C)=O)C(=O)N[C@H](C(=O)N[C@@H](Cc1c[nH]c2ccccc12)C(=O)NCC(=O)N1CCC[C@H]1C(=O)N[C@H](C(=O)N[C@H](C(=O)N(C)[C@@H](CO)C(=O)N[C@@H](CCCNC(=N)N)C(=O)N[C@@H](CCC(=O)O)C(=O)N[C@@H](CC(=O)O)C(N)=O)C(C)C)[C@@H](C)O)C(C)C

molecular target: Sushi domains (SD1/2) protein of the GABAB1a (GB1a) subunit, recombinant; test: FP competition
Sequence (Q9Z0U4 29-158): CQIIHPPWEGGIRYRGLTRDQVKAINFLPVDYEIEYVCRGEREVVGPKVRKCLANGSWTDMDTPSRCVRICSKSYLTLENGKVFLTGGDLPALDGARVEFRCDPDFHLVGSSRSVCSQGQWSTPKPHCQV

Binder	Ki
Ac-EDDSIVWWGGADTD-NH2	243 nM
B1	502 nM
Ac-EDDSYVWWGGADTD-NH2	191 nM
Ac-EDDSFVWWGGADTD-NH2	142 nM
Ac-EDDWDVWWGGADTD-NH2	257 nM
Ac-EDDSDVWWHGADTD-NH2	270 nM
Ac-EDDSDVWWDGADTD-NH2	429 nM
Ac-EDDSDVIWGGADTD-NH2	951 nM
B2	434 nM
Ac-EDDSDVYWGGADTD-NH2	3600 nM
B3	523 nM
Ac-EDDSDVDWGGADTD-NH2	4800 nM
Ac-KDDSDVWWGGADTD-NH2	1520 nM
Ac-EDDSDIWWGGADTD-NH2	401 nM
B4	1040 nM
